For four substances, Kd and IC50 results are on record in patent US20100150834A1, “HIGH AFFINITY EPHB RECEPTOR BINDING COMPOUNDS AND METHODS OF USE THEREOF” (priority 2006, published 2010).

Experiment [1] addresses murine EphB4-Alkaline Phosphatase (murine) (UniProt P54761). Nature of the experiment: ELISA binding curve: TNYL-RAW Fc immobilised, increasing volumes of murine EphB4 AP, OD405; one experiment. A general note: An ELISA detects its analyte on a solid surface through an enzyme-linked reagent.
In a further experiment the target is murine EphB4-Fc (murine) (UniProt P54761). The experiment in a line: ELISA: murine EphB4-Fc on protein A plates, biotinylated peptide detected with streptavidin-HRP.
Experiment [2] concerns the target murine EphB4-Alkaline Phosphatase (murine) (UniProt P54761). Nature of the experiment: competition ELISA: murine EphB4-AP binding to immobilised murine ephrin-B2-Fc.

Sequence of murine EphB4-Fc (murine) (P54761 16-539 limits assumed): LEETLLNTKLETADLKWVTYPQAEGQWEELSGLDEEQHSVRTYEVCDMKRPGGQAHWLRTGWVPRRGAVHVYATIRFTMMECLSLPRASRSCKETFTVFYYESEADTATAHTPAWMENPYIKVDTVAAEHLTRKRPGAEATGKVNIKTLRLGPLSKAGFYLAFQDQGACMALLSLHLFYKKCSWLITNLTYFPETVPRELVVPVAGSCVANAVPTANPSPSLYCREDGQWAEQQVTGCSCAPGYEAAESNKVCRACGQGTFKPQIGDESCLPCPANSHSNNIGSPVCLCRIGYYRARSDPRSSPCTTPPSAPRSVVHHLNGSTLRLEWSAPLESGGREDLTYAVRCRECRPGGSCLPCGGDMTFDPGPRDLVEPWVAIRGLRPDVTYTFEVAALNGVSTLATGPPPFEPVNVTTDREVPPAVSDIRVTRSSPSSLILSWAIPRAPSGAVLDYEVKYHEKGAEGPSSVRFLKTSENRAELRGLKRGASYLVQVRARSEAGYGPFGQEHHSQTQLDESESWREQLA
Sequence of murine EphB4-Alkaline Phosphatase (murine) (P54761 16-539): as the sequence (P54761 16-539 limits assumed) above

Substance TNYL-RAW Fc fusion protein displayed a Kd in experiment [1] of 10 nM.

For the substance “PEG 10 kDa-linked TNYL-RAW-biotin dimer (peptide)”, the Kd with murine EphB4-Fc (murine) turned out to be 0.9 nM. In addition, in experiment [2], the IC50 is 9 nM.

Consider “PEG 3.4 kDa-linked TNYL-RAW-biotin dimer (peptide)”, for which the Kd in the experiment with murine EphB4-Fc (murine) is 0.9 nM. The substance further returned an IC50 in experiment [2] of 7 nM.

As for “TNYL-RAW-biotin coupled to monofunctional 10 kDa PEG (monomer) (peptide)”, the Kd with murine EphB4-Fc (murine) was 1.4 nM. Also, the IC50 in experiment [2] stood at 21 nM.

By Kd is commonly meant a measure of binding affinity in units of concentration. A word on the IC50: it is the concentration needed to halve the response being measured. A higher IC50 goes with a need for much substance.
